Experimental data published in patent US20260176342A1 (CITRYLL B V, published 2026).
Square brackets hold non-standard residues; d marks the D form. Ends that are not written are not given here. Cit = NC(=O)NCCC[C@H](N)C(=O)O

T1: citrullinated histone 2A-derived peptide (SEQ ID NO: 18), C-terminal biotin (human)
T1 construct: Captured by its biotin on NeutrAvidin plates (ELISA) or streptavidin biosensors (Octet); also called histone-derived peptide; citrullinated H2A-derived peptide
T1 peptide: SG[Cit]GKQGGKARA-biotin

T2: citrullinated histone 4-derived peptide (SEQ ID NO: 20), C-terminal biotin (human, citrulline at position 3; biotin at the C-terminus)
T2 construct: Immobilized on streptavidin biosensors (Octet RED96); also called H4-derived peptide; N-terminal histone 4 peptide
T2 peptide: SGXGKGGKGLGK


How the values were obtained:
[1] = molecular target: T1, citrullinated histone 2A-derived …; assay: Octet RED96 off-rate screen, biotinylated peptide on streptavidin biosensors, antibody 72 nM, 30 C
Procedure: (§1) Off-rate screening of the isomerization-mutated antibodies was performed on an Octet® RED96 (biomolecule detection system) instrument (Pall ForteBio). All measurements were performed at 30° C. Streptavidin (SA) biosensors were first washed for 50 sec with PBS. 1 μg/ml N-terminal histone 2A (SEQ ID NO: 18) and histone 4 (SEQ ID NO: 20) peptides, containing both a citrulline at position 3 and a biotin at the C-terminus, were immobilized on SA biosensors for 200 sec, washed with PBS for 50 sec and excess reactive streptavidin molecules blocked with EZ-Link™ biocytin for 200 sec. After two additional 50 sec wash steps in PBS, antibodies at a concentration of 72 nM diluted in PBS were allowed to bind to the biosensors for 200 sec. Sensors were subsequently placed in PBS for 4000 sec in order to measure their dissociation rates.
(§2) Background signals generated with non-coated biosensors, which have been exposed to the various antibodies as well as signals from coated biosensors that have not been exposed to the various antibodies, have been subtracted before dissociation curves for each antibody were plotted. Both histone 2A and histone 4 dissociation rates constants (kdis×E-07 (1/s)) for each antibody were calculated applying a 1:1 interaction model (fitting local, full) using ForteBio data analysis software 8.1.

[2] = molecular target: T2, citrullinated histone 4-derived peptide …; assay: as above
Procedure: as §1, §2

binding result [1]	binding result [2]	Binder
binds	binds	hMQ22.101j/LC17 (antibody, V domains shown, also called isomerization mutant; heavy chain hVH22.101j with light chain hVL22.101LC17) VH: QVQLVQSGAEVKKPGASVKVSCKASGYTFTNYGMHWVRQAPGQGLEWMGWINTYSGEATYAQKFQGRVTMTRDTSISTAYMELSRLRSDDTAVYYCLRGYTYQSFDEGGDYWGQGTLVTVSS VL: DVVMTQSPLSLPVTLGQPASISCRSSQSLLDTDGKTYLNWFQQRPGQSPRRLIYLVSKLDSGVPDRFSGSGSGTDFTLKISRVEAEDVGVYYCWQGTHFPYTFGQGTKLEIK
binds	binds	hMQ22.101HC9/LC17 (antibody, V domains shown, also called isomerization mutant; heavy chain hVH22.101HC9 with light chain hVL22.101LC17) VH: RIQLVQSGAEVKKPGASVKVSCKASGYTFTNYGMHWVRQAPGQGLEWMGWINTYSGEATYVDDFQGRVTMTRDTSISTAYMELSRLRSDDTAVYYCLRGYTYQSFDEGGDYWGQGTLVTVSS VL: DVVMTQSPLSLPVTLGQPASISCRSSQSLLDTDGKTYLNWFQQRPGQSPRRLIYLVSKLDSGVPDRFSGSGSGTDFTLKISRVEAEDVGVYYCWQGTHFPYTFGQGTKLEIK
binds	binds	hMQ22.101HC8/LC17 (antibody, V domains shown, also called isomerization mutant; heavy chain hVH22.101HC8 with light chain hVL22.101LC17) VH: QVQLVQSGAEVKKPGSSVKVSCKASGYTFTNYGMHWVRQAPGQGLEWMGWINTYSGEATYVDDFQGRVTITADESTSTAYMELSSLRSEDTAVYYCLRGYTYQSFDEGGDYWGQGTLVTVSS VL: DVVMTQSPLSLPVTLGQPASISCRSSQSLLDTDGKTYLNWFQQRPGQSPRRLIYLVSKLDSGVPDRFSGSGSGTDFTLKISRVEAEDVGVYYCWQGTHFPYTFGQGTKLEIK
binds	binds	hMQ22.101j/LC21 (antibody, V domains shown, also called isomerization mutant; heavy chain hVH22.101j with light chain hVL22.101LC21) VH: QVQLVQSGAEVKKPGASVKVSCKASGYTFTNYGMHWVRQAPGQGLEWMGWINTYSGEATYAQKFQGRVTMTRDTSISTAYMELSRLRSDDTAVYYCLRGYTYQSFDEGGDYWGQGTLVTVSS VL: DVVMTQSPLSLPVTLGQPASISCRSSQSLLDSDAKTYLNWFQQRPGQSPRRLIYLVSKLDSGVPDRFSGSGSGTDFTLKISRVEAEDVGVYYCWQGTHFPYTFGQGTKLEIK
binds	binds	hMQ22.101HC7/LC27 (antibody, V domains shown, also called isomerization mutant; heavy chain hVH22.101HC7 with light chain hVL22.101LC27) VH: QVQLVQSGAEVKKPGSSVKVSCKASGYTFTNYGMHWVRQAPGQGLEWMGWINTYSGEATYAQKFQGRVTITADESTSTAYMELSSLRSEDTAVYYCLRGYTYQSFDEGGDYWGQGTLVTVSS VL: DVVMTQSPLSLPVTLGQPASISCRSSQSLLDTDAKTYLNWFQQRPGQSPRRLIYLVSKLDSGVPDRFSGSGSGTDFTLKISRVEAEDVGVYYCWQGTHFPYTFGQGTKLEIK
binds	binds	hMQ22.101HC8/LC41 (antibody, V domains shown, also called isomerization mutant; heavy chain hVH22.101HC8 with light chain hVL22.101LC41) VH: QVQLVQSGAEVKKPGSSVKVSCKASGYTFTNYGMHWVRQAPGQGLEWMGWINTYSGEATYVDDFQGRVTITADESTSTAYMELSSLRSEDTAVYYCLRGYTYQSFDEGGDYWGQGTLVTVSS VL: DVVMTQSPLSLPVTLGQPASISCRSSQSLLDADGKTYLNWFQQRPGQSPRRLIYLVSKLDSGVPDRFSGSGSGTDFTLKISRVEAEDVGVYYCWQGTHFPYTFGQGTKLEIK
binds	binds	hMQ22.101HC9/LC21 (antibody, V domains shown, also called isomerization mutant; heavy chain hVH22.101HC9 with light chain hVL22.101LC21) VH: RIQLVQSGAEVKKPGASVKVSCKASGYTFTNYGMHWVRQAPGQGLEWMGWINTYSGEATYVDDFQGRVTMTRDTSISTAYMELSRLRSDDTAVYYCLRGYTYQSFDEGGDYWGQGTLVTVSS VL: DVVMTQSPLSLPVTLGQPASISCRSSQSLLDSDAKTYLNWFQQRPGQSPRRLIYLVSKLDSGVPDRFSGSGSGTDFTLKISRVEAEDVGVYYCWQGTHFPYTFGQGTKLEIK
binds	binds	hMQ22.101HC7/LC41 (antibody, V domains shown, also called isomerization mutant; heavy chain hVH22.101HC7 with light chain hVL22.101LC41) VH: QVQLVQSGAEVKKPGSSVKVSCKASGYTFTNYGMHWVRQAPGQGLEWMGWINTYSGEATYAQKFQGRVTITADESTSTAYMELSSLRSEDTAVYYCLRGYTYQSFDEGGDYWGQGTLVTVSS VL: DVVMTQSPLSLPVTLGQPASISCRSSQSLLDADGKTYLNWFQQRPGQSPRRLIYLVSKLDSGVPDRFSGSGSGTDFTLKISRVEAEDVGVYYCWQGTHFPYTFGQGTKLEIK
binds	binds	hMQ22.101HC8/LC42 (antibody, V domains shown, also called isomerization mutant; heavy chain hVH22.101HC8 with light chain hVL22.101LC42) VH: QVQLVQSGAEVKKPGSSVKVSCKASGYTFTNYGMHWVRQAPGQGLEWMGWINTYSGEATYVDDFQGRVTITADESTSTAYMELSSLRSEDTAVYYCLRGYTYQSFDEGGDYWGQGTLVTVSS VL: DVVMTQSPLSLPVTLGQPASISCRSSQSLLDNDGKTYLNWFQQRPGQSPRRLIYLVSKLDSGVPDRFSGSGSGTDFTLKISRVEAEDVGVYYCWQGTHFPYTFGQGTKLEIK
binds	binds	hMQ22.101HC9/LC27 (antibody, V domains shown, also called isomerization mutant; heavy chain hVH22.101HC9 with light chain hVL22.101LC27) VH: RIQLVQSGAEVKKPGASVKVSCKASGYTFTNYGMHWVRQAPGQGLEWMGWINTYSGEATYVDDFQGRVTMTRDTSISTAYMELSRLRSDDTAVYYCLRGYTYQSFDEGGDYWGQGTLVTVSS VL: DVVMTQSPLSLPVTLGQPASISCRSSQSLLDTDAKTYLNWFQQRPGQSPRRLIYLVSKLDSGVPDRFSGSGSGTDFTLKISRVEAEDVGVYYCWQGTHFPYTFGQGTKLEIK
binds	binds	hMQ22.101HC8/LC27 (antibody, V domains shown, also called isomerization mutant; heavy chain hVH22.101HC8 with light chain hVL22.101LC27) VH: QVQLVQSGAEVKKPGSSVKVSCKASGYTFTNYGMHWVRQAPGQGLEWMGWINTYSGEATYVDDFQGRVTITADESTSTAYMELSSLRSEDTAVYYCLRGYTYQSFDEGGDYWGQGTLVTVSS VL: DVVMTQSPLSLPVTLGQPASISCRSSQSLLDTDAKTYLNWFQQRPGQSPRRLIYLVSKLDSGVPDRFSGSGSGTDFTLKISRVEAEDVGVYYCWQGTHFPYTFGQGTKLEIK
binds	binds	hMQ22.101HC7/LC21 (antibody, V domains shown, also called isomerization mutant; heavy chain hVH22.101HC7 with light chain hVL22.101LC21) VH: QVQLVQSGAEVKKPGSSVKVSCKASGYTFTNYGMHWVRQAPGQGLEWMGWINTYSGEATYAQKFQGRVTITADESTSTAYMELSSLRSEDTAVYYCLRGYTYQSFDEGGDYWGQGTLVTVSS VL: DVVMTQSPLSLPVTLGQPASISCRSSQSLLDSDAKTYLNWFQQRPGQSPRRLIYLVSKLDSGVPDRFSGSGSGTDFTLKISRVEAEDVGVYYCWQGTHFPYTFGQGTKLEIK
binds	binds	hMQ22.101HC8/LC21 (antibody, V domains shown, also called isomerization mutant; heavy chain hVH22.101HC8 with light chain hVL22.101LC21) VH: QVQLVQSGAEVKKPGSSVKVSCKASGYTFTNYGMHWVRQAPGQGLEWMGWINTYSGEATYVDDFQGRVTITADESTSTAYMELSSLRSEDTAVYYCLRGYTYQSFDEGGDYWGQGTLVTVSS VL: DVVMTQSPLSLPVTLGQPASISCRSSQSLLDSDAKTYLNWFQQRPGQSPRRLIYLVSKLDSGVPDRFSGSGSGTDFTLKISRVEAEDVGVYYCWQGTHFPYTFGQGTKLEIK
binds	binds	hMQ22.101HC7/LC17 (antibody, V domains shown, also called isomerization mutant; heavy chain hVH22.101HC7 with light chain hVL22.101LC17) VH: QVQLVQSGAEVKKPGSSVKVSCKASGYTFTNYGMHWVRQAPGQGLEWMGWINTYSGEATYAQKFQGRVTITADESTSTAYMELSSLRSEDTAVYYCLRGYTYQSFDEGGDYWGQGTLVTVSS VL: DVVMTQSPLSLPVTLGQPASISCRSSQSLLDTDGKTYLNWFQQRPGQSPRRLIYLVSKLDSGVPDRFSGSGSGTDFTLKISRVEAEDVGVYYCWQGTHFPYTFGQGTKLEIK
binds	binds	hMQ22.101HC7/LC42 (antibody, V domains shown, also called isomerization mutant; heavy chain hVH22.101HC7 with light chain hVL22.101LC42) VH: QVQLVQSGAEVKKPGSSVKVSCKASGYTFTNYGMHWVRQAPGQGLEWMGWINTYSGEATYAQKFQGRVTITADESTSTAYMELSSLRSEDTAVYYCLRGYTYQSFDEGGDYWGQGTLVTVSS VL: DVVMTQSPLSLPVTLGQPASISCRSSQSLLDNDGKTYLNWFQQRPGQSPRRLIYLVSKLDSGVPDRFSGSGSGTDFTLKISRVEAEDVGVYYCWQGTHFPYTFGQGTKLEIK
binds	binds	hMQ22.101HC9/LC42 (antibody, V domains shown, also called isomerization mutant; heavy chain hVH22.101HC9 with light chain hVL22.101LC42) VH: RIQLVQSGAEVKKPGASVKVSCKASGYTFTNYGMHWVRQAPGQGLEWMGWINTYSGEATYVDDFQGRVTMTRDTSISTAYMELSRLRSDDTAVYYCLRGYTYQSFDEGGDYWGQGTLVTVSS VL: DVVMTQSPLSLPVTLGQPASISCRSSQSLLDNDGKTYLNWFQQRPGQSPRRLIYLVSKLDSGVPDRFSGSGSGTDFTLKISRVEAEDVGVYYCWQGTHFPYTFGQGTKLEIK
binds	binds	hMQ22.101HC9/LC41 (antibody, V domains shown, also called isomerization mutant; heavy chain hVH22.101HC9 with light chain hVL22.101LC41) VH: RIQLVQSGAEVKKPGASVKVSCKASGYTFTNYGMHWVRQAPGQGLEWMGWINTYSGEATYVDDFQGRVTMTRDTSISTAYMELSRLRSDDTAVYYCLRGYTYQSFDEGGDYWGQGTLVTVSS VL: DVVMTQSPLSLPVTLGQPASISCRSSQSLLDADGKTYLNWFQQRPGQSPRRLIYLVSKLDSGVPDRFSGSGSGTDFTLKISRVEAEDVGVYYCWQGTHFPYTFGQGTKLEIK
